Experimental data as given in patent US20040175758.

Biological target: T1, Q2L, synthetic peptide Ac-LATLSHCIELMVKR-NH2 (L-amino acids)
T1 chain: LATLSHCIELMVKR

B1: Recombinant FLAG-tagged human GPBP (expressed in yeast, FLAG-affinity purified) (protein)
chain: MSDNQSWNSSGSEEDPETESGPPVERCGVLSKWTNYIHGWQDRWVVLKNNALSYYKSEDETEYGCRGSICLSKAVITPHDFDECRFDISVNDSVWYLRAQDPDHRQQWIDAIEQHKTESGYGSESSLRRHGSMVSLVSGASGYSATSTSSFKKGHSLREKLAEMETFRDILCRQVDTLQKYFDACADAVSKDELQRDKVVEDDEDDFPTTRSDGDFLHSTNGNKEKLFPHVTPKGINGIDFKGEAITFKATTAGILATLSHCIELMVKREDSWQKRLDKETEKKRRTEEAYKNAMTELKKKSHFGGPDYEEGPNSLINEEEFFDAVEAALDRQDKIEEQSQSEKVRLHWPTSLPSGDAFSSVGTHRFVQKPYSRSSSMSSIDLVSASDDVHRFSSQVEEMVQNHMTYSLQDVGGDANWQLVVEEGEMKVYRREVEENGIVLDPLKATHAVKGVTGHEVCNYFWNVDVRNDWETTIENFHVVETLADNAIIIYQTHKRVWPASQRDVLYLSVIRKIPALTENDPETWIVCNFSVDHDSAPLNNRCVRAKINVAMICQTLVSPPEGNQEISRDNILCKITYVANVNPGGWAPASVLRAVAKREYPKFLKRFTSYVQEKTAGKPILF
With B1 the “GPBP autophosphorylation in vitro” value was “efficiently inhibited GPBP autophosphorylation”.
